# “Also recorded” adds a separate entry of the source.
# System: young rats (10-12 weeks of age)
# Assay: Long-term intra-cerebroventricular albumin perfusion in rats, telemetric ECoG recording and PSWE detection
# Type: in vivo, rat
# Protocol: All animal experiments were conducted following an ethical committee approval of the institution in which they were performed, Ben Gurion University of the Negev, Beer-Sheva, Israel or The University of California, Berkeley, Berkeley, Calif., US. Electrodes and wireless transmitters were implanted in the following animal groups: 1) Twelve weeks old (n=5) mice; 2) 18-22 months old (n=12) mice; 3) Nine to 11-weeks-old Wistar male rats implanted with 28 days long intra-cerebroventricular (ICV) perfusion osmotic pumps (N=8, 0.8 mM albumin infusion, N=5 ACSF infusion); 4) Sprague-Dawley rats (n=5, weighing 300 gr) 3 weeks after status epilepticus (SE, see below) and naïve rats (N=3). Groups 1 and 2 electrode coordinates: 0.5 mm rostral or 3.5 mm caudal and 1 mm lateral to bregma, on each side (4 screws, 2 in each hemisphere); Group 3 coordinates: 4.8 mm posterior or 2.7 mm anterior, and 2.2 mm lateral to bregma, on each side (4 screws, 2 in each hemisphere); Group 4 coordinates: 3 mm caudal and 2.5 mm lateral to bregma, on each side (2 screws, 1 in each hemisphere)). Continuous ECoG (sampling rate of 500 Hz) was recorded wirelessly from freely moving animals in their home cage for the described duration of experiments.
# Signal processing was performed offline. Pre-processing included high pass filter (1 Hz), low pass filter (100 Hz) and notch (band-stop) filter (45-55 Hz). EEG human recordings were analyzed as reference to average. Human data were preprocessed by EEGLAB. Animal data were preprocessed using home-developed MATLAB (MathWorks Ltd., MA USA) scripts. To detect PSWE, ECoG or EEG signals were buffered into 2 sec long epochs with 1 sec overlap. Spectral analysis by Fast Fourier Transform (FFT) was applied and the median power frequency (MPF) was extracted for each epoch. PSWE was defined if MPF was <6 Hz for >5 consecutive seconds (see results). Analysis was performed separately for each recorded channel. Power spectrum as in FIG. 1A was calculated for the average channel and for animals ECoG data (e.g., FIG. 2A) over a single channel. FFT was also applied for the entire recording period buffered into 8 seconds epoch with 4 seconds overlap to analyze relative power across the frequency spectrum of 1-20 Hz. Processing was performed by self-developed MATLAB scripts.
# The inventors next recorded ECoG from young rats (10-12 weeks of age) exposed to ICV albumin (N=8), compared to animals exposed to ACSF (controls, N=5).
# [1] = ECoG spectral analysis, long-term albumin N=8 vs ACSF N=5
molecule,measurement,setting,value
"albumin (protein, UniProt P02770 25-608, looked up, serum protein infused ICV (0.8 mM, 28 days) in rats as a model of chronic BBB disruption) Albumin: EAHKSEIAHRFKDLGEQHFKGLVLIAFSQYLQKCPYEEHIKLVQEVTDFAKTCVADENAENCDKSIHTLFGDKLCAIPKLRDNYGELADCCAKQEPERNECFLQHKDDNPNLPPFQRPEAEAMCTSFQENPTSFLGHYLHEVARRHPYFYAPELLYYAEKYNEVLTQCCTESDKAACLTPKLDAVKEKALVAAVRQRMKCSSMQRFGERAFKAWAVARMSQRFPNAEFAEITKLATDVTKINKECCHGDLLECADDRAELAKYMCENQATISSKLQACCDKPVLQKSQCLAEIEHDNIPADLPSIAADFVEDKEVCKNYAEAKDVFLGTFLYEYSRRHPDYSVSLLLRLAKKYEATLEKCCAEGDPPACYGTVLAEFQPLVEEPKNLVKTNCELYEKLGEYGFQNAVLVRYTQKAPQVSTPTLVEAARNLGRVGTKCCTLPEAQRLPCVEDYLSAILNRLCVLHEKTPVSEKVTKCCSGSLVERRPCFSALTVDETYVPKEFKAETFTFHSDICTLPDKEKQIKKQTALAELVKHKPKATEDQLKTVMGDFAQFVDKCCKAADKDNCFATEGPNLVARSKEALA",relative power in alpha (8-12 Hz) band compared with ACSF-injected animals,[1],significantly lower
same,relative power in beta (12-20 Hz) band compared with ACSF-injected animals,[1],significantly lower
same,relative power in the delta (1-5 Hz) band compared with ACSF-injected animals,[1],significantly greater
same,"occurrence per minute of PSWEs, albumin-injected hemisphere compared with the non-injected hemisphere","ICV osmotic pump, right lateral ventricle, four weeks after onset of perfusion, ipsilateral vs contralateral, N=8",significantly higher; also recorded: more common
same,PSWE duration compared with the ACSF treated group,albumin treated group vs ACSF,significantly longer
same,PSWE median frequency compared with the ACSF treated group,albumin treated group vs ACSF,slower; also recorded: significantly lower
same,"occurrence per minute of PSWEs, albumin-injected hemisphere compared with ACSF-injected controls","four weeks after onset of perfusion, albumin N=8 vs ACSF N=5",significantly higher; also recorded: more common
same,higher occurrence per minute of PSWEs detected at one week,one week after onset of perfusion,not at one week

# — patent US20220369998A1, “METHODS FOR DIAGNOSING AND TREATING NEURAL DISEASES” (B. G. NEGEV TECHNOLOGIES AND APPLICATIONS LTD., AT …, priority 2019, published 2022)
